Assay results reported in patent publication US9068000B2, “Monoclonal antibodies for enhancing or inhibiting insulin-like growth factor-I” (The University of North Carolina at Chapel Hill, priority 2004, dated 2015).
No end group written: not given here.

Assays:
IGF-I = IGF-I biologic actions (DNA synthesis, cell migration, protein synthesis); type: cell-based
Method: Cell Replication. Smooth muscle and/or endothelium are plated at relatively low density, 10^4/cm^2 in low serum (0.2%) containing medium. 24 hr after plating, cells are quiesced in 0.2% platelet poor plasma containing medium. 24 hr later the cultures are exposed to increasing concentrations of IGF-I between 0 and 100 ng/ml and the β3 agonists or antagonists. After 48 hr, the cell cultures are stained with trypan blue and the cell number is determined by manual counting. If β3 is occupied by an agonist then there is at least a 2 fold increase in cell number over this time period. Whereas if an antagonist is added there is often less than 20% increase in cell number.
Cell Migration. Confluent quiescent smooth muscle or endothelial cell cultures are wounded with a razor blade as described in Maile L A, Imai Y, Clarke J B, Clemmons D R, J. Biol. Chem., 277:1800-1805 (2002). The wounds are examined to determine that a straight edge has been obtained and there are no grooves in the plate. At least five areas that are correctly wounded are then identified with a color marker. IGF-I is added at concentrations of either 50 or 100 ng/ml and various concentrations of the angonists or antagonists are added to at least duplicate cultures. After 72 hr the number of cells that have migrated at least 50 microns from the wound edge are determined and counted following staining with methylene blue. […]

IGF-I receptor = assay: Activation of the IGF-I receptor by IGF-I; type: cell-based
Excerpt: (§1) Modification of IGF-I actions. […] These assays include but are not totally limited to the following: β3 subunit phosphorylation, β3 binding to SHPS-1, and integrin associated protein (IAP) as a complex, the association of IAP with SHPS-1, SHPS-1 phosphorylation and Shc recruitment to SHPS-1, Shc phosphorylation, stimulation of DNA synthesis and cell replication or cell migration. Ligands that bind to β3 through the cysteine loop domain often induce both conformational changes and β3 phosphorylation. Similarly, stimulation of β3 phosphorylation can induce a conformational change in β3 secondarily. β3 phosphorylation is measured by applying the compound that binds to β3 to smooth muscle and endothelial cells in culture. […] The lysates are either analyzed directly by immunoblotting for β3 to measure […] or immunoprecipitated with an anti β3 antibody and then immunoblotted for phosphotyrosine. Immunoblotting is analyzed following separation of the proteins contained in 30 μl of cell lysate by SDS polyacrylamide gel electrophoresis (SDS-PAGE). […] The amount of phosphorylated β3 is then determined by SDS-PAGE followed by immunoblotting with a monoclonal anti-phosphotyrosine antibody (PY99) (Ling Y, Maile L A, Clemmons D R, Mol Endocrinol, 17:1824-1833 (2003)).

αVβ3 integrin = αVβ3 integrin (Homo sapiens, UniProt P05106); assay: Binding of peptides/ligands to the cysteine loop region of αVβ3
αVβ3 integrin, sequence (P05106 27-788): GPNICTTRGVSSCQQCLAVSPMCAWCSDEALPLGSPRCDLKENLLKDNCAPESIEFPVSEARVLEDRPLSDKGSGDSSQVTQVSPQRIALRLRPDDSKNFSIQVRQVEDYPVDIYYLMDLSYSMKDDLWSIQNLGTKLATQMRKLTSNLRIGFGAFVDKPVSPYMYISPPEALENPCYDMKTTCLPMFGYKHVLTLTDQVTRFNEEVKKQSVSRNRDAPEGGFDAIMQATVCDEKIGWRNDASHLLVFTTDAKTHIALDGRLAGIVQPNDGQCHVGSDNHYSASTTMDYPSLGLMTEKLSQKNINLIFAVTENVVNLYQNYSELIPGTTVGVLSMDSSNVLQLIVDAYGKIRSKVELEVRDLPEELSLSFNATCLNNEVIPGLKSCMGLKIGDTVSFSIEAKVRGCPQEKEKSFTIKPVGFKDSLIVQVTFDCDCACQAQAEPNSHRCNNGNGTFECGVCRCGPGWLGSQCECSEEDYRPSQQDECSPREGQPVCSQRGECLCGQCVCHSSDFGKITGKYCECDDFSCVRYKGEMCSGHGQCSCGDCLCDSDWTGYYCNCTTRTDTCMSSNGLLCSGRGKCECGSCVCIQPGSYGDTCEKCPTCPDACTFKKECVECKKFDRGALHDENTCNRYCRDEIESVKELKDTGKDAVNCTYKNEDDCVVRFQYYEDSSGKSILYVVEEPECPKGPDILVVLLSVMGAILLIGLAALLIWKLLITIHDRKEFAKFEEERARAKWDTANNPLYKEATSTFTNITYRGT
αVβ3 integrin, sequence (P06756 31-889 partner limits assumed): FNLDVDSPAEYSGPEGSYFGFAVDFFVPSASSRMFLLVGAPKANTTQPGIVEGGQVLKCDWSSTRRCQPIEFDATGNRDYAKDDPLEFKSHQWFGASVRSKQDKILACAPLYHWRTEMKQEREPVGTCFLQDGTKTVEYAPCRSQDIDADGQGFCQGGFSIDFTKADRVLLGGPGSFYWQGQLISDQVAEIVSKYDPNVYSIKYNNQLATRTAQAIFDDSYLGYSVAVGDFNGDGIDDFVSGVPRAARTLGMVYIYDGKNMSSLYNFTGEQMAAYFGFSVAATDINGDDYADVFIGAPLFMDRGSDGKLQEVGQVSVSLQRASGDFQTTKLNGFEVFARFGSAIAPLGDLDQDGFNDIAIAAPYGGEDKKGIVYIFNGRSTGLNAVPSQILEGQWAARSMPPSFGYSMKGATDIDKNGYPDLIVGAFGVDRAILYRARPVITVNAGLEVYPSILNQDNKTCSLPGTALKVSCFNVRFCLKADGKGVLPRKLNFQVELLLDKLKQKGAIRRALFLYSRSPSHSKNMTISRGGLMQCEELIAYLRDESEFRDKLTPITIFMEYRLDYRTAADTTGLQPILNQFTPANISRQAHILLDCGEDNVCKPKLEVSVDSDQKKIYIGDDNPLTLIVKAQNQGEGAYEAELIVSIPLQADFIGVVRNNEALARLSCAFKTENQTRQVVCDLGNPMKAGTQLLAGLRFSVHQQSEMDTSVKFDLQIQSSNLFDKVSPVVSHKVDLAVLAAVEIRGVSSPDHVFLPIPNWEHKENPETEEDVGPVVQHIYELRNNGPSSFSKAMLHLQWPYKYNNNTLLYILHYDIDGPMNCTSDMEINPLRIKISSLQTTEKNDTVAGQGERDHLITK
αVβ3 integrin, sequence (P06756 891-1048 partner limits assumed): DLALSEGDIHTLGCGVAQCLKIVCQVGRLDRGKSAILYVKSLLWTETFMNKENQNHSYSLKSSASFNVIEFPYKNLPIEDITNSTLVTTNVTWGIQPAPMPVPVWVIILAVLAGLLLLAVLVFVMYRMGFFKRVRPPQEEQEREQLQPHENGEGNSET
Excerpt: As noted above, the agonists bind to a specific region on the αVβ3 integrin receptor that has not been identified previously as a region that would result in receptor activation. All agonists that we have determined to bind in this region contain a region of sequence that is commonly termed a heparin binding domain. This heparin binding domain is present in 5 ligands that we have found to date that bind to this region of αVβ3. The documentation that they bind to a specific region of αVβ3 has been provided by two types of experiments. First we have a polyclonal antibody that is known to react with this region of αVβ3, which is the region of the β3 subunit that is located between amino acids at positions 177 and 183.
A more definitive experiment was conducted in which the identical region of the β1 integrin was substituted by mutagenesis for this […] amino acid region within β3. […] Binding assays were then conducted using these ligands.

β3 phosphorylation = assay: β3 phosphorylation, SHP-2 transfer and enhancement of IGF-I receptor activation; type: cell-based
Excerpt: as §1

Molecule | binding to αVβ3 / β3 cysteine loop region (αVβ3 integrin) | other results
KKQRFRHL (Synthetic IGF-I antagonist) [IGF-I antagonist peptide] | – | inhibitory activity on IGF-I actions in biologic assays (IGF-I): inhibitory activity; inhibition of activation of the IGF-I receptor by IGF-I (IGF-I receptor): approximately 60%
heparin binding epidermal growth factor | shown to bind | –
KKQRFRHR (AlphaV beta3 binding sequence from vitronectin) | – | stimulation of β3 phosphorylation, SHP-2 transfer to downstream signaling molecules and enhancement of IGF-I receptor activation in response to IGF-I (β3 phosphorylation): full stimulation
insulin-like binding protein-5 (RKGFYKRK) [IGFBP-5] | shown to bind | –
cyclized peptide containing this sequence: a cyclized peptide containing the sequence KKQRFRHL (also: cyclized, mode and places not given here) | – | inhibitor potency compared with linear KKQRFRHL (IGF-I): more potent inhibitor
connective tissue growth factor (protein) QNCSGPCRCPDEPAPRCPAGVSLVLDGCGCCRVCAKQLGELCTERDPCDPHKGLFCHFGSPANRKIGVCTAKDGAPCIFGGTVYRSGESFQSSCKYQCTCLDGAVGCMPLCSMDVRLPSPDCPFPRRVKLPGKCCEEWVCDEPKDQTVVGPALAAYRLEDTFGPDPTMIRANCLVQTTEWSACSKTCGMGISTRVTNDNASCRLEKQSRLCMVRPCEADLEENIKKGKKCIRTPKISKPIKFELSGCTSMKTYRAKFCGVCTDGRCCTPHRTTTLPVEFKCPDGEVMKKNMMFIKTCACHYNCPGDNDIFESLYYRKMYGDMA | shown to bind | –

Second part, led by results:

binding to αVβ3 / β3 cysteine loop region (αVβ3 integrin) | Molecule | other results
shown to bind | vitronectin | –
shown to bind | osteopontin | –
